{"source": "patent US20090291081A1", "about": "(published 2009)", "binders": {"B1": {"name": "ABT2-108-538x/ABT1-95-15 scFv on yeast surface (scFv, V domains shown)", "VH": "EVQLLESGGGLVQPGGSLRLSCAASGFTFADEGMMWVRQAPGKGLEWVSRITYSGKNTYYADSVKGRFTISRDNSKNTLYLQMNSLRAEDTAVYYCAKYTGRILGHHLFDYWGQGTLVTVSS", "VL": "DIQMTQSPSSLSASVGDRVTITCRASQPIVRNLRWYQQKPGKAPKLLIYSSSYLEPGVPSRFSGSGSGTDFTLTISSLQPEDFATYHCQQGYRWPVTFGQGTKVEIK"}, "B2": {"name": "ABT2-108-538x/ABT1-95-15 scFv (scFv, V domains shown)", "VH": "B1 VH", "VL": "B1 VL"}}, "key": {"human IL-1α": {"biological_target": "T1, human IL-1α (human, UniProt P01583 113-271)", "T1 chain": "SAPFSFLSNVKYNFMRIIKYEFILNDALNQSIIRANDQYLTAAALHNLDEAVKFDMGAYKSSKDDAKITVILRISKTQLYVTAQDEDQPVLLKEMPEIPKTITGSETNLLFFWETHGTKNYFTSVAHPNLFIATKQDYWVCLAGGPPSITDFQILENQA", "experiment": "yeast surface display titration (FACS); unlabelled IL-1α"}, "Bio-IL-1a": {"biological_target": "Bio-IL-1a", "experiment": "yeast surface display titration (FACS); biotinylated IL-1α"}}}
{"binder": "B1", "values": [{"measurement": "EC50", "setting": "human IL-1α", "result": 0.664, "unit": "nM"}]}
{"binder": "B2", "values": [{"measurement": "EC50", "setting": "Bio-IL-1a", "result": 0.664, "unit": "nM"}]}
